Source: paper PMC10999750, “Structural basis for nuclear import of bat adeno-associated virus capsid protein” (The Journal of General Virology, 2024)
Where no end group is shown, it is not given here. The star is where a group is joined. FITC = O=C1OC2(c3ccc(O)cc3Oc3cc(O)ccc32)c2ccc(NC(=S)*)cc21; Ahx = NCCCCCC(=O)O

B1: Synthetic FITC labelled AAV 09YN Cap-BR peptide (residues 117-167) (peptide)
peptide: {FITC-Ahx}-QAKKRVLEPFGLVEGEPEPKKTPSVKRPHASPDSSSGVGKKGDQPARKRLD
notes: also called FITC-tagged AAV 09YN Cap-BR peptide; non-mutated 09YN Cap-BR; source: synthetic peptide (GenScript)
B2: AAV 09YN Cap-BR (N-terminal domain fragment of AAV 09YN VP1 encompassing basic regions 1-3, residues 112-169) (domain or fragment)
chain: ANALFQAKKRVLEPFGLVEGEPEPKKTPSVKRPHASPDSSSGVGKKGDQPARKRLDFG
notes: not shown: GST, N-terminal, cleaved

Key:
[1] = target: T1, Mouse importin α2 lacking the IBB domain (mImpα2DIBB) (mouse, UniProt P52293 70-529); experiment: fluorescence polarisation; FITC-tagged peptide ('2 nm' [sic]) with importin two-fold serially diluted from 4.5 µM across 23 wells, 200 µl, GST Buffer A (50 mM Tris, 125 mM NaCl); three independent experiments; details: both partners purified
[2] = target: T1, Mouse importin α2 lacking the IBB …; experiment: crystal structure; co-purified complex of AAV 09YN Cap-BR and IMPα2; hanging drop, 0.75 M Na citrate, 0.1 M HEPES pH 7.5, 22 °C; 2.4 Å; details: both partners purified

Row | Binder | Kd [1] | binding result [2]
1 | B1 | 0.656 µM | –
2 | B2 | – | binds
